The assay deals with C0-C1-C2 region of the glutamate NMDAR NR1 subunit (mouse) (UniProt P35438). The assay is described as follows: pull-down; competition: 0.2 uM CaM with NR1 C0-C1-C2 covalently attached to NHS-activated Sepharose, 2.5 mM CaCl2, increasing concentrations of σ1R WT or E102Q; bound CaM and σ1R by western blot.
Sequence of UniProt P35438 (P35438 834-938): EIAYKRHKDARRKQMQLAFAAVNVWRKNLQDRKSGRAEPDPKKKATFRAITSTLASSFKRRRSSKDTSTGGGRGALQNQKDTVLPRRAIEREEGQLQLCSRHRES

Turning to “sigma receptor type 1 (σ1R) E102Q mutant (from UniProt O55242 1-223) (natural protein)”, the concentration that prevented the binding of 200 nM CaM to NR1 is below 0.2 nM.
The substance “sigma receptor type 1 (σ1R), wild-type (from UniProt O55242 1-223) (natural protein)” showed a concentration that abolished the binding of 200 nM CaM to NR1 of 60 nM.

These data come from paper PMC7582951.
